We go through three molecules from US20070237775A1 (Eli Lilly, published 2007).

In assay [1] the target is T1, human ghrelin peptide spanning amino acids 20-28 (human).
T1 construct: also called hGhrelin 20-28
T1 peptide: KPPAKLQPR
Description: peptide competition with full-length hGhrelin for the Fab.

Assay [2] concerns the target T2, human ghrelin peptide spanning amino acids 4-20 (human).
T2 peptide: FLSPEHQRVQQRKESKK
The assay can be described thus: FLIPR calcium assay, peptide competing with hGhrelin for the Fab. The procedure: (§1) The wells are then washed twice with HBSS and 50 μL FLIPR buffer is then added per well.
(§2) Samples are prepared by combining 7.2 μl calcium concentrate (CaCl₂-2H₂O in water at 3.7 mg/ml mixed 1:1 with HBSS and filter sterilized) with 30 μl peptide, 30 μl Fab (of varying concentration), and 16.8 μl hGhrelin (2.5 μM stock) in 3.75% BSA/50% HBSS. The final concentration of the sample solution is 0.75% BSA, and calcium at approximately the same concentration as in the FLIPR buffer. Fifty microliters of the sample solution is added to the 50 μl FLIPR buffer in the well with the AV12 cells. The final concentration of the peptide is 100 nM and the final concentration of the hGhrelin is 0.83 nM. The cell plate is shaken for about 15 seconds prior to loading it into the FLIPR instrument. Test samples or control samples are added to each well, and read by a Fluorometric Imaging Plate Reader (Molecular Devices).
(§3) If there is no Fab or an irrelevant antibody present in the solution, the full-length hGhrelin will be free to bind the GHS-R1a receptor on the AV12 cells and signal transduction will occur resulting in comparatively high values in the assay. If a Fab is present that binds to the full-length hGhrelin in the solution, then the full-length hGhrelin binding to the GHS-R1a receptor is inhibited and signal transduction is thereby inhibited resulting in comparatively lower values in the assay. However, if a peptide (i.e., a fragment of human ghrelin) is also added to the solution and the Fab binds the peptide, then the full-length hGhrelin is not prevented from binding the GHS-R1a receptor, signal transduction is not inhibited, and the values in the assay are comparatively high. […] The peptides competing with hGhrelin for Fab binding were used in the assay at a concentration over 50 times that of hGhrelin.

Assay [3] addresses T3, human ghrelin peptide spanning amino acids 18-28 (human).
T3 construct: also called hGhrelin 18-28; ghrelin peptide 18-28
T3 peptide: SKKPPAKLQPR
Described as above. The procedure:
as §1, §2, §3

B1: Fab 3281 (Fab, V domains shown)
VH: QVQLQQSRAELAKPGASVKMSCKASGYTFTSYWMHWVKQGPGQGLEWIGYINPSTGYTEYTQKFKDKATLTADKSSSTAYMQLSSLTSEDSAVYYCATDGYDEDYWGQGTTLTVSS
VL: DAVMTQIPLTLSVTIGQPASISCRSSQSLGHSNGNTYLHWYLQKPGQSPKLLIYKVSNRFSGVPDRFSGSGSGTDFTLKISRVEAEDLGTYFCSQSTLVPWTFGGGTKLEIKR
notes: Murine Fab from an Omniclonal antibody library (immunized C57/Bl6 mice); kappa light chain (captured and detected with goat anti-mouse kappa)
As to B1, the binding result in assay [1] is “no binding”; in assay [2], “no binding (tested: peptide 100 nM)”; in assay [3], “no binding (tested: peptide 100 nM)”.

B2: Fab 4281 (Fab, V domains shown)
VH: QVQLQQSRAELAKPGASVKMSCKASGYTFTSYWIHWIKQRPGQGLEWIGYIDPGIGNIEYNQKFQDKATLTADKSSSIVYMQLNRLTSEDSAVYYCATDGYDEDYWGQGTTLTVSS
VL: DVVMTQTPLSLPVSLGDQASISCRSSQSLVHSNGNTYLHWYLQKPGQSPKLLIYKVSNRFSGVPDRFSGSGSGTDFTLKISRVEAEDLGTYFCSQSTLVPWTFGGGTKLEIKR
notes: Murine Fab, kappa light chain
Turning to B2, the binding result in assay [2] was “no binding (tested: peptide 100 nM)”.

B3: Fab 4731 (Fab, V domains shown)
VH: QVQLQQSRAELAKPGASVKMSCKASGYTFTSYWMHWVKQGPGQGLEWIGYINPSTGYTEYTQKFKDKATLTADKSSSTAYMQLSSLTSEDSAVYYCATDGYDEDYWGQGTTLTVSS
VL: DVVMTQTPLSLPVSLGDQASISCRSSQSLVHSNGNTYLHWYLQKPGQSPKLLIYKVSNRFSGVPDRFSGSGSGTDFTLKISRVEAEDLGTYFCSQSTLVPWTFGGGTKLEIKR
notes: Murine Fab, kappa light chain
Take B3: the binding result in assay [2] is “no binding (tested: peptide 100 nM)”.
